Results reported in PMC4230322.

Substrate: CC/C(=C(\c1ccc(O)cc1)c1ccc(OCCN(C)C)cc1)c1ccccc1
Assay: Initial rate kinetics of TAM sulfation
Format: biochemical, human
Details: other: TAM as substrate, pH 7.2, 25.0 °C

B1: SULT1A1 (Homo sapiens) (protein)
chain: MELIQDTSRPPLEYVKGVPLIKYFAEALGPLQSFQARPDDLLISTYPKSGTTWVSQILDMIYQGGDLEKCHRAPIFMRVPFLEFKAPGIPSGMETLKDTPAPRLLKTHLPLALLPQTLLDQKVKVVYVARNAKDVAVSYYHFYHMAKVHPEPGTWDSFLEKFMVGEVSYGSWYQHVQEWWELSRTHPVLYLFYEDMKENPKREIQKILEFVGRSLPEETVDFVVQHTSFKEMKKNPMTNYTTVPQEFMDHSISPFMRKGMAGDWKTTFTVAQNERFDADYAEKMAGCSLSFRSEL
With B1 the kcat (E·(PAP)2 form, [PAPS] 250 μM) was 11 s⁻¹, the Km (E·PAP form, [PAPS] 4.0 μM) was 14 (1.0) μM and the kcat (E·PAP form, [PAPS] 4.0 μM) was 2 s⁻¹.
